From patent US10577428B2, “Anti-factor XI monoclonal antibodies and methods of use thereof” (Oregon Health & Science University, priority 2007, dated 2020)
Entries after “also recorded” stand apart in the source; their conditions may differ. Read-outs that look alike come from different tables or passages of the source.

Assays:
Human FXI in plasma = target: T1, Human FXI in plasma (Homo sapiens, UniProt P03951); assay: Western blot of human plasma; assay type: binding
T1 construct: antibody 1A6 recognizes Factor XI in human and non-human primate plasma; from tissue; host or cells: normal human plasma (A4); whole human blood or reconstituted FXII-deficient human blood (A9)
From the text: (§1) Results from a Western Blot study corroborating that anti-factor XI monoclonal antibody 1A6 recognizes Factor XI in human and non-human primate plasma is shown in FIG. 7A.

platelet rich plasma = assay: Platelet aggregation in platelet rich plasma in response to ADP and collagen; assay type: cell-based, baboon; conditions: platelet rich plasma of treated animals versus control
[1] = test system: third apple (A3) domain of the FXI heavy chain; assay: Immunoblotting of FXI and recombinant FXI/prekallikrein chimeras; assay type: binding, human; conditions: for FXI domain recognized: immunoblotting of recombinant FXI/prekallikrein chimeras
Experimental: (§2) Comparative binding studies for monoclonal antibody 1A6 were conducted using FXI, Prekallikrein (PK), and FXI/PK chimeras involving either the substitution FXI domains with PK domains (FIG. 9) or the substitution of PK domains with FXI domains (FIG. 10).

FXI = target: T2, FXI (Homo sapiens, UniProt P03951); assay: Flow chamber coagulation studies (blood perfused over collagen); assay type: cell-based
T2 construct: antibody 1A6 recognizes Factor XI in human and non-human primate plasma; from tissue; host or cells: normal human plasma (A4); whole human blood or reconstituted FXII-deficient human blood (A9)
Experimental: Glass capillary tubes were coated with 100 μg/ml Horm collagen (Nycomed Arzenmittel, Munich, Germany). Whole human blood was collected into corn trypsin inhibitor (CTI, 40 μg/ml), discarding the first 1 ml to limit any activation of the coagulation pathway, and then perfused through the tubes at a shear rate of 265 s^−1 for 10 min. […] In separate experiments, washed platelets and RBCs were processed as described (McCarty et al. (2006) J. Thromb. Haemost. 4:1367-1378), and then mixed with FXII deficient human plasma (<1% FXII, Haematologic Technologies, Essex Junction, Vt.) to reach a hematocrit of 40% and platelet count of 300×10^3/μl. […] Recalcified FXII deficient human plasma without RBCs or platelets was also perfused over collagen. Images were obtained by DIC microscopy after three minutes of perfusion with modified Tyrodes buffer.
When whole human blood, which was anticoagulated with CTI to block the function of FXIIa, was perfused over collagen at arterial shear (265 s^−1), platelets were deposited in large aggregates which became enveloped by forming fibrin strands (FIG. 7B). […] The outcome was similar when using reconstituted FXII deficient blood, with or without CTI. […] No fibrin was formed when recalcified FXII deficient human plasma was perfused over collagen. For these experiments, human whole blood, anticoagulated with CTI (40 μg/ml) to inhibit FXIIa, or reconstituted FXII deficient human blood was perfused through collagen coated capillary tubes at a shear rate of 265 s^−1 for 10 minutes. […] Images were obtained via Kohler-illuminated Nomarski differential interference contrast (DIC) microscopy with a Zeiss Axiovert 200M microscope using a Zeiss 63× oil immersion 1.40 NA plan-apochromat lens. Images were captured following three minutes of perfusion with modified Tyrodes buffer using a Zeiss AxioCam with Slidebook 4.0 (Intelligent Imaging Innovations, Inc., Denver, Colo., USA). All experiments were performed at 37° C. Each image in FIG. 7B is representative of 2-3 experiments.

baboon FXI in plasma = assay: Western blot of baboon / non-human primate plasma; assay type: binding
From the text: as §1

Prekallikrein (PK) = Prekallikrein (PK) (Homo sapiens, UniProt P03952); assay: Western blot binding to prekallikrein
Prekallikrein (PK), sequence (P03952 20-638): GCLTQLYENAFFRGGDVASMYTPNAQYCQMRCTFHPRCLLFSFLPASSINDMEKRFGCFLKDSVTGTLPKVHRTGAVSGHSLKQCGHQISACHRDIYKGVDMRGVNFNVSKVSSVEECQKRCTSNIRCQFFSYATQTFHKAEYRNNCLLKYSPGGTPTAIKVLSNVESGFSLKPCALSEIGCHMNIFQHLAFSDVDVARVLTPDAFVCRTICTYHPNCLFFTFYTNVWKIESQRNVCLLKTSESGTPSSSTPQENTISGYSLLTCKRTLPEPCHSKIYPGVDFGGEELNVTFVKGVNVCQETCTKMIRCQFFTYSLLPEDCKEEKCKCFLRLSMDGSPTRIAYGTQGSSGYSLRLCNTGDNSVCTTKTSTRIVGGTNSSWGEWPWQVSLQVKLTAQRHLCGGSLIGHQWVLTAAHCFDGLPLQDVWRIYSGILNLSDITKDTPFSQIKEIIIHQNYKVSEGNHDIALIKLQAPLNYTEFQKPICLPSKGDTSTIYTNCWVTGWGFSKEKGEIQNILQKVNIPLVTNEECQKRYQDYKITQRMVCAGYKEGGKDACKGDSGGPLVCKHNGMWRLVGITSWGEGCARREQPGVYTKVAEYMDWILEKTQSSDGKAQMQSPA
Experimental: as §2

baboons (Papio anubis) = assay: Vascular graft occlusion studies, collagen coated 2 mm i.d. grafts, high arterial shear; assay type: in vivo, baboon (Papio anubis); conditions: 2 mm i.d. grafts
Experimental: Thrombus formation was initiated within the baboon AV shunt by interposing a thrombogenic segment of prosthetic vascular graft (ePTFE, WL Gore & Co., Flagstaff, Ariz.), as previously described (Hanson et al. (1993) J. Clin. Invest. 92:2003-2012). To consistently trigger platelet-dependent thrombus formation, the clinical graft segments were coated with immobilized collagen. Twenty mm long grafts having internal diameters (i.d.) of either 2 or 4 mm were filled with equine type I collagen (1 mg/ml; Nycomed Arzenmittel, Munich, Germany) for 15 min, and then dried overnight under sterile airflow. This method produced a uniform collagen coating within the graft lumen as determined by scanning electron microscopy (FIGS. 1B and 1C). The thrombogenic collagen-coated grafts were then incorporated between segments of silicon rubber tubing, and deployed into the AV shunts (FIG. 1A). The grafts were exposed to blood for up to 60 min. During each experiment, the blood flow rate through the graft was restricted to 100 ml/min by clamping the proximal silicone rubber shunt segment, thereby producing a mean wall shear rate (MWSR) in the 4 mm grafts of 265 s^−1, while in the 2 mm grafts the initial MWSR was 2120 s^−1. Flow rates were continuously monitored using an ultrasonic flow meter (Transonics Systems, Ithaca, N.Y.). […] Baseline blood flow was restored through the permanent shunt after each experiment. In the 2 mm diameter grafts blood flow rates progressively declined due to thrombus formation. The grafts were removed from the AV shunts when the flow rate fell from 100 ml/min to below 20 ml/min, signaling imminent occlusion. The time from initiation of blood flow to graft removal (<20 ml/min blood flow) was taken as the occlusion time.
Occlusion studies were performed using 10 mm long 2 mm i.d. collagen coated devices which produced high arterial shear rates (2120 s^−1 at 100 ml/min clamped blood flow). Accumulation of labeled platelets onto 2 mm thrombogenic grafts were measured in 3-min intervals using a gamma scintillation camera. Flow was maintained at 100 ml/min by proximal clamping for as long as possible, and then allowed to decrease as the propagating thrombus began to occlude the device. A final blood flow rate of 20 ml/min was used as a cutoff for occlusion, since a fully occlusive thrombi and lack of blood flow through the device could lead to occlusion of the shunt and a significant loss of blood for the animals.
Since aspirin is a less antihemostatic agent than heparin, and it is often included in the standard treatment of arterial-type platelet-dependent thrombosis, ASA was used in the current studies with the occlusion-prone 2 mm i.d. grafts as a long-acting positive control. ASA (32 mg/kg) was administered orally 2-4 h before each thrombosis experiment, as described previously (Hanson et al. (1985) J. Clin. Invest. 75:1591-1599). Four weeks were allowed for washout of each aXIMab and ASA before performing new experiments in the same animal.

baboons = assay: Observation for adverse reactions and bleeding events; assay type: in vivo, baboon
[2] = CTI (40 μg/ml) whole human blood, aXIMab 20 μg/ml, collagen, 265 s^-1, 10 min
[3] = FXII-inhibited or deficient human blood under flow (FIG. 7B)

B1: aXIMab: neutralizing murine IgG/kappa anti-human FXI monoclonal antibody from hybridoma 1A6; binds A3 domain; VH SEQ ID NO:3, VL SEQ ID NO:5 (antibody, listed as Mus musculus, V domains shown)
VH: QVTLKESGPGILKPSQTLSLTCSFSGFSLSTSGMGVGWIRQPSGKGLEWLAHIWWDDDKYYNPSLKSQLTISKDTSRNQVFLKITSVDAADTATYYCARKRSSVVAHYYAMDYWGQGTSVTVSS
VL: DIVLTQSPASLAVSLGQRATISCKASQSVDYDGDSYLNWYQQKPGQPPKLLIYAASNLESGIPARFSGSGSGTDFTLNIHPVEEEDAATYYCQQSNGDPWTFGGGTKLEIK
- recognition of FXI on Western blot (Human FXI in plasma): single band at 160 kDa
- recognition of FXI on Western blot (Human FXI in plasma; listed as 1A6): recognizes
- Platelet aggregation in response to ADP and collagen (platelet rich plasma): unchanged
- binding to FXI/PK chimeras ([1]; FXI domains substituted with PK domains (FIG. 9)): bound all FXI/PK chimeras except the chimera in which the A3 domain of FXI was substituted with a PK domain
- binding to FXI/PK chimeras ([1]; PK domains substituted with FXI domains (FIG. 10), listed as 1A6): bound only to chimeras in which the A3 domain of FXI had been inserted; also recorded: bind only to chimeras in which the A3 domain of FXI had been inserted
- FXI domain recognized [1]: specifically recognized the third apple (A3) domain
- FXI domain recognized ([1]; listed as 1A6): bound to an epitope on the FXI A3 domain
- Fibrin deposition (FXI; [2]): noticeably attenuated
- platelet adhesion (FXI; [2]): modest reduction
- platelet accumulation (FXI; [3]): reduced
- visible fibrin formation (FXI; [3]): prevented
- fibrin formation (FXI; reconstituted FXII deficient human blood, with or without CTI, aXIMab 20 μg/ml): interrupted fibrin formation
- recognition of FXI on Western blot (baboon FXI in plasma): single band at 160 kDa
- recognition of FXI on Western blot (baboon FXI in plasma; listed as 1A6): recognizes
- binding to PK (Prekallikrein (PK)): did not bind
- initial platelet accumulation rate versus vehicle (baboons (Papio anubis)): similar
- thrombus stability (baboons (Papio anubis); 2120 s^-1): unstable; also recorded: profoundly reduced
- Number occluded (baboons (Papio anubis); 60 min): 0/5
- graft occlusion (baboons (Papio anubis); 60 min-long studies (FIG. 5)): did not occlude the grafts
- time after initiation of blood perfusion when growth rate of platelet thrombus was reduced (baboons (Papio anubis); all treated animals): 12 to 15 min
- Embolic events per experiment (baboons (Papio anubis); mean ± SEM): 6.6 ± 0.9
- Fibrin deposition (baboons (Papio anubis); mean ± SEM, control 0.30 ± 0.04): 0.18 ± 0.02 mg
- grafts remained patent (baboons (Papio anubis); over 60 min): 5 of 5
- adverse reactions to the antibody (baboons; 2 mg/kg i.v. bolus, 4 baboons): No adverse reactions
- adverse bleeding events (baboons; one week follow-up periods of observation): No re-bleeding phenomena, petechiae, hematomas or other adverse bleeding events
